Measured values as given in publication PMC13038408.

Columns and labels:
RSVF-multi-4 K29L = assay: SPR
[1] = biological target: prefusion RSVF sc9-10 DS-Cav1-A149C;Y458C;S46G;E92D;S215P;K465Q thermostabilized variant (DS2) (respiratory syncytial virus) (UniProt P03420); assay: SPR

Sequence of motavizumab Fab (VH): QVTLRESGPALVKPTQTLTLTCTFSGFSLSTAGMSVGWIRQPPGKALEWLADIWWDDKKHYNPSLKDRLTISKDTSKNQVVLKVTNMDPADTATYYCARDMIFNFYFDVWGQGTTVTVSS
Sequence of motavizumab Fab (VL): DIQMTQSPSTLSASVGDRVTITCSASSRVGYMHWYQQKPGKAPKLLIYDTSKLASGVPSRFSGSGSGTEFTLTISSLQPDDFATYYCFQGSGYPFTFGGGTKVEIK

RSV90 Fab
Kd (RSVF-multi-4 K29L): > 1000 nM | Kd [1]: 0.9 nM

motavizumab Fab
Kd [1]: 0.015 nM
